# Paper doi:10.1101/2023.08.01.551478, “A feedback control mechanism governs the synthesis of lipid-linked precursors of the bacterial cell wall” (bioRxiv, 2023)
# B1: E. coli MraY(T23P) (enzyme)
# chain: MLVWLAEHLVKYYSGFNVFSYLPFRAIVSLLTALFISLWMGPRMIAHLQKLSFGQVVRNDGPESHFSKRGTPTMGGIMILTAIVISVLLWAYPSNPYVWCVLVVLVGYGVIGFVDDYRKVVRKDTKGLIARWKYFWMSVIALGVAFALYLAGKDTPATQLVVPFFKDVMPQLGLFYILLAYFVIVGTGNAVNLTDGLDGLAIMPTVFVAGGFALVAWATGNMNFASYLHIPYLRHAGELVIVCTAIVGAGLGFLWFNTYPAQVFMGDVGSLALGGALGIIAVLLRQEFLLVIMGGVFVVETLSVILQVGSFKLRGQRIFRMAPIHHHYELKGWPEPRVIVRFWIISLMLVLIGLATLKVR
# notes: MraY (phospho-MurNAc-pentapeptide transferase) of Escherichia coli with the T23P substitution, as it stood in the YES complex for cryo-EM; also called EcMraY(T23P)
# Target: the molecule itself
# Assay: cryo-EM structure; YES complex of EcMraY(T23P), protein E and SlyD, obtained with the methodologies of ref. 31; focused refinement of MraY alone; processed with cryosparc v3.2.0
protein,measurement,value
B1,stoichiometry N,2
